Target: MeCP2 C-terminal fragment WT (human, UniProt P51608 274-340)
Experiment: EMSA; 10 mM Tris-HCl pH 7.4, 50 mM KCl, 0.5 mM MgCl2, 0.1 mM EDTA, 5% glycerol, 0.1 mg/ml BSA, 66.7 nM probe, room temperature 30 min; 1% agarose gel, 1X TAE, 4 C
Settings: protein: recombinant; tags: N-terminal GST (pGEX-5x3); label: none (ethidium bromide post-stain); blunt

Sequence of MeCP2 C-terminal fragment WT (P51608 274-340): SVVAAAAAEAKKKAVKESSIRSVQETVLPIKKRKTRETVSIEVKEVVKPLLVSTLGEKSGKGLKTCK

B1: 64-bp EMSA probe (dsDNA)
DNA 1: GGACTCCAGGTCCAGGACCGCGTTTTTCGCGCGCACGGCGCGGGAGGTCCAGCTGTCCACCTCC
DNA 2: GGAGGTGGACAGCTGGACCTCCCGCGCCGTGCGCGCGAAAAACGCGGTCCTGGACCTGGAGTCC
binding result: binds
